Experimental data from the supplement of paper PMC9112550, “Optimization of the antimicrobial peptide Bac7 by deep mutational scanning” (BMC Biology, 2022).

System: Escherichia coli TOP10
Assay: shrunken log2 fold change of peptide-encoding DNA abundance (4.5 h post-induction vs induction); higher = less antimicrobial activity (less host growth inhibition)
Conditions: time post-induction: 4.5 h; library: site-saturation at positions 5, 18, 19, 20
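Note: peptides expressed intracellularly from a pBAD plasmid library in pooled LB shake-flask culture, induced with 0.3% L-arabinose, DNA abundance read by NGS, three biological replicates, DESeq2 with apeglm shrinkage.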

Row | Sequence | shrunken log2 fold change
1 | RRIRRRPPRLPRPRPRPYRAPRP | -0.47
2 | RRIRLRPPRLPRPRPRPMMRPRP | 0.196
3 | RRIRPRPPRLPRPRPRPRIPPRP | 0.243
4 | RRIRSRPPRLPRPRPRPGHCPRP | 0.0298
5 | RRIRCRPPRLPRPRPRPQVDPRP | 0.0243
6 | RRIRVRPPRLPRPRPRPKFRPRP | 0.0323
7 | RRIRVRPPRLPRPRPRPGWMPRP | 0.159
8 | RRIRSRPPRLPRPRPRPKCDPRP | 0.00444
9 | RRIRSRPPRLPRPRPRPGEQPRP | 0.00836
10 | RRIRPRPPRLPRPRPRPHRRPRP | -0.0778
11 | RRIRPRPPRLPRPRPRPYCLPRP | -0.115
12 | RRIRPRPPRLPRPRPRPSFIPRP | -0.601
13 | RRIRLRPPRLPRPRPRPCIPPRP | -0.194
14 | RRIRKRPPRLPRPRPRPKNRPRP | 0.226
15 | RRIRIRPPRLPRPRPRPSIAPRP | -0.628
16 | RRIRNRPPRLPRPRPRPEMTPRP | -0.059
17 | RRIRIRPPRLPRPRPRPHVFPRP | 0.064
18 | RRIRERPPRLPRPRPRPPENPRP | 0.222
19 | RRIRSRPPRLPRPRPRPLKWPRP | 0.0381
20 | RRIRWRPPRLPRPRPRPKDIPRP | -0.0886
21 | RRIRRRPPRLPRPRPRPGHIPRP | -0.116
22 | RRIRKRPPRLPRPRPRPAPSPRP | 0.748
23 | RRIRWRPPRLPRPRPRPDYWPRP | 0.122
24 | RRIRNRPPRLPRPRPRPDFSPRP | -0.0911
25 | RRIRHRPPRLPRPRPRPQVTPRP | -0.0667

Row | Sequence | shrunken log2 fold change
26 | RRIRYRPPRLPRPRPRPIYIPRP | -0.673
27 | RRIRRRPPRLPRPRPRPHRVPRP | -0.0232
28 | RRIRKRPPRLPRPRPRPARVPRP | 0.857
29 | RRIRQRPPRLPRPRPRPKQPPRP | 0.0884
30 | RRIRARPPRLPRPRPRPTWWPRP | 0.568
31 | RRIRGRPPRLPRPRPRPGGEPRP | 1.24
32 | RRIRHRPPRLPRPRPRPPPEPRP | 0.836
33 | RRIRWRPPRLPRPRPRPCFRPRP | 0.021
34 | RRIRWRPPRLPRPRPRPCYFPRP | -0.0204
35 | RRIRYRPPRLPRPRPRPCGIPRP | -0.00192
36 | RRIRWRPPRLPRPRPRPEQLPRP | 0.00937
37 | RRIRWRPPRLPRPRPRPKGVPRP | 0.109
38 | RRIRCRPPRLPRPRPRPCIFPRP | -0.396
39 | RRIRKRPPRLPRPRPRPTMYPRP | -0.0949
40 | RRIRERPPRLPRPRPRPLKYPRP | -0.38
41 | RRIRQRPPRLPRPRPRPMMYPRP | 0.0473
42 | RRIRRRPPRLPRPRPRPEDLPRP | -0.00437
43 | RRIRVRPPRLPRPRPRPIRSPRP | -0.125
44 | RRIRWRPPRLPRPRPRPIYSPRP | -0.0292
45 | RRIRQRPPRLPRPRPRPSIPPRP | -0.751
46 | RRIRSRPPRLPRPRPRPFGKPRP | -0.0207
47 | RRIRERPPRLPRPRPRPFNNPRP | -0.39
48 | RRIRYRPPRLPRPRPRPQCLPRP | 0.0613
49 | RRIRHRPPRLPRPRPRPHRIPRP | -0.0803
50 | RRIRLRPPRLPRPRPRPFIWPRP | 0.112

Row | Sequence | shrunken log2 fold change
51 | RRIRERPPRLPRPRPRPYVRPRP | -0.00133
52 | RRIRTRPPRLPRPRPRPIWFPRP | -0.033
53 | RRIRTRPPRLPRPRPRPDQVPRP | -0.272
54 | RRIRKRPPRLPRPRPRPPPVPRP | 0.751
55 | RRIRARPPRLPRPRPRPVIIPRP | -0.104
56 | RRIRERPPRLPRPRPRPAPVPRP | 0.055
57 | RRIRRRPPRLPRPRPRPCFWPRP | 0.406
58 | RRIRHRPPRLPRPRPRPIKYPRP | -0.194
59 | RRIRYRPPRLPRPRPRPSEAPRP | -0.096
60 | RRIRLRPPRLPRPRPRPQWAPRP | 0.123
61 | RRIRHRPPRLPRPRPRPNKLPRP | -1.05
62 | RRIRMRPPRLPRPRPRPRHEPRP | 0.532
63 | RRIRGRPPRLPRPRPRPVVQPRP | 0.94
64 | RRIRDRPPRLPRPRPRPLQQPRP | 0.104
65 | RRIRDRPPRLPRPRPRPATGPRP | 0.312
66 | RRIRHRPPRLPRPRPRPPRQPRP | 0.108
67 | RRIRLRPPRLPRPRPRPWDMPRP | -0.235
68 | RRIRHRPPRLPRPRPRPFPMPRP | -0.651
69 | RRIRRRPPRLPRPRPRPHQLPRP | -0.225
70 | RRIRFRPPRLPRPRPRPESLPRP | 0.0896
71 | RRIRLRPPRLPRPRPRPRNAPRP | -0.0271
72 | RRIRTRPPRLPRPRPRPPQEPRP | 0.0383
73 | RRIRNRPPRLPRPRPRPGGTPRP | 0.154
74 | RRIRTRPPRLPRPRPRPPRVPRP | 0.334
75 | RRIRCRPPRLPRPRPRPWDLPRP | 0.129

Row | Sequence | shrunken log2 fold change
76 | RRIRTRPPRLPRPRPRPYDWPRP | -0.696
77 | RRIRCRPPRLPRPRPRPIQAPRP | 0.0936
78 | RRIRLRPPRLPRPRPRPSGYPRP | -0.152
79 | RRIRSRPPRLPRPRPRPHNLPRP | -0.33
80 | RRIRNRPPRLPRPRPRPFEPPRP | -0.181
81 | RRIRIRPPRLPRPRPRPDIQPRP | -0.37
82 | RRIRLRPPRLPRPRPRPVFKPRP | -0.134
83 | RRIRGRPPRLPRPRPRPGMHPRP | 0.589
84 | RRIRWRPPRLPRPRPRPSIPPRP | 0.46
85 | RRIRPRPPRLPRPRPRPENGPRP | -0.0225
86 | RRIRTRPPRLPRPRPRPDPSPRP | -0.0208
87 | RRIRWRPPRLPRPRPRPEVWPRP | 0.966
88 | RRIRERPPRLPRPRPRPPNCPRP | -0.019
89 | RRIRGRPPRLPRPRPRPQSNPRP | 0.518
90 | RRIRGRPPRLPRPRPRPEATPRP | 2.21
91 | RRIRYRPPRLPRPRPRPPWQPRP | -0.121
92 | RRIRARPPRLPRPRPRPDQLPRP | 0.421
93 | RRIRCRPPRLPRPRPRPQSHPRP | -0.304
94 | RRIRDRPPRLPRPRPRPKPVPRP | 0.00913
95 | RRIRIRPPRLPRPRPRPAVVPRP | -0.0892
96 | RRIRFRPPRLPRPRPRPVFVPRP | -0.277
97 | RRIRHRPPRLPRPRPRPGGWPRP | 1.47
98 | RRIRARPPRLPRPRPRPPRMPRP | 0.949
99 | RRIRVRPPRLPRPRPRPFYKPRP | -0.502
100 | RRIRYRPPRLPRPRPRPDKFPRP | -0.116

Row | Sequence | shrunken log2 fold change
101 | RRIRKRPPRLPRPRPRPFHWPRP | 0.111
102 | RRIRGRPPRLPRPRPRPANIPRP | -0.0276
103 | RRIRDRPPRLPRPRPRPHPFPRP | 0.0528
104 | RRIRDRPPRLPRPRPRPQLSPRP | 0.103
105 | RRIRNRPPRLPRPRPRPWGQPRP | 0.0191
106 | RRIRARPPRLPRPRPRPAGRPRP | 0.723
107 | RRIRPRPPRLPRPRPRPCRVPRP | -0.309
108 | RRIRWRPPRLPRPRPRPKADPRP | 0.353
109 | RRIRVRPPRLPRPRPRPQRKPRP | 0.0451
110 | RRIRKRPPRLPRPRPRPITNPRP | 0.133
111 | RRIRVRPPRLPRPRPRPQSMPRP | 0.229
112 | RRIRPRPPRLPRPRPRPRTNPRP | -0.0218
113 | RRIRCRPPRLPRPRPRPTWCPRP | -0.0117
114 | RRIRQRPPRLPRPRPRPMDVPRP | -0.0102
115 | RRIRMRPPRLPRPRPRPANRPRP | 0.21
116 | RRIRFRPPRLPRPRPRPDFEPRP | 0.0453
117 | RRIRVRPPRLPRPRPRPFTMPRP | -0.368
118 | RRIRQRPPRLPRPRPRPSAPPRP | 0.175
119 | RRIRMRPPRLPRPRPRPMQEPRP | 0.0303
120 | RRIRIRPPRLPRPRPRPCDRPRP | -0.563
121 | RRIRHRPPRLPRPRPRPRSVPRP | 0.0714
122 | RRIRARPPRLPRPRPRPPRRPRP | 0.923
123 | RRIRQRPPRLPRPRPRPQIDPRP | -0.0357
124 | RRIRDRPPRLPRPRPRPEAEPRP | 1.67
125 | RRIRERPPRLPRPRPRPYQSPRP | -0.0109
